Test results published in PMC2721272 (Journal of molecular biology, 2009).

Molecular target: the molecule itself
Test: crystal structure

B1: Marasmius oreades agglutinin (natural protein, UniProt Q8X123 1-293, looked up)
chain: MSLRRGIYHIENAGVPSAIDLKDGSSSDGTPIVGWQFTPDTINWHQLWLAEPIPNVADTFTLCNLFSGTYMDLYNGSSEAGTAVNGWQGTAFTTNPHQLWTIKKSSDGTSYKIQNYGSKTFVDLVNGDSSDGAKIAGWTGTWDEGNPHQKWYFNRMSVSSAEAQAAIARNPHIHGTYRGYILDGEYLVLPNATFTQIWKDSGLPGSKWREQIYDCDDFAIAMKAAVGKWGADSWKANGFAIFCGVMLGVNKAGDAAHAYNFTLTKDHADIVFFEPQNGGYLNDIGYDSYMAFY
modifications: side chain of Cys215 oxidized in about 50% of the molecules in the crystal
For B1, the “stoichiometry N” value was 2.
